Assay results published in the supplement of paper PMC10567573.

B1: LPCAT4 (parent)
chain: HDPLYGKLFSTYLRPPHTSRGTSQ
B2: DCAF4 (parent)
chain: TTKCVRQYEGHVNEYAYLPLHVHE

Variants of: B1
Test: protein stability index of a GFP-peptide fusion (GPS, HEK-293T) (PSI 1-6); higher = more stable
Conditions: c terminus: a fixed tail appended
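Further: lentivirally expressed fusions sorted by FACS into six bins by GFP to DsRed ratio, PSI derived from sequencing read proportions per bin multiplied by bin number.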

Protein stability index of substitutions, site by site:
T11: N 3.02, I 2.46, C 2.48, F 2.75, H 3.05, G 2.49, Y 2.82, P 2.48, E 3.07, M 2.92, R 2.94, A 4.05, V 2.24, W 2.77, D 3.46, L 2.39, Q 3.43, S 2.63, K 3.45
P16: K 3.01, Y 2.22, C 2.26, I 2.41, M 3.13, G 3.01, W 2.42, S 2.67, V 2.46, D 3.37, L 2.68, A 2.2, T 2.76, E 3.19, R 2.77, Q 3.27, H 2.52, F 1.77, N 2.94
F9: M 4.35, K 4.05, W 2.43, H 4.33, R 4.13, Y 3.8, E 4.54, P 3.65, T 4.12, Q 4.37, G 4.09, A 4.32, V 4.24, C 3.71, D 4.41, S 4.74, I 3.82, L 3.54, N 4.76
P3: M 2.27, W 2.03, Q 2.38, K 2.54, D 3.02, A 2.5, G 2.35, H 2.98, E 3.14, R 2.55, F 2.12, V 2.76, T 2.7, N 2.44, S 2.3, Y 2.55, I 2.29, L 2.25, C 2.17
L8: M 3.73, Y 2.58, D 4.88, T 4.31, S 4.68, Q 4.58, P 4.26, A 4.59, H 4.44, G 4.66, I 3.25, N 4.19, W 2.37, K 3.91, R 4.27, C 4.01, E 4.85, F 2.15, V 3.62
K7: H 2, Y 1.78, M 2.65, W 1.96, E 3.29, A 2.55, V 2.68, P 2.36, T 3.43, S 2.58, D 3.28, Q 3.12, N 3.36, R 2.46, L 2.46, F 1.94, G 3.25, C 2.04, I 2.75
H17: N 2.59, L 2.66, Q 2.61, F 2.9, M 2.43, I 2.43, K 2.38, G 2.25, P 2.99, A 2.79, R 2.3, C 2.7, E 3.22, D 2.82
P15: S 2.48, I 2.32, C 2.11, D 3.16, Q 2.47, A 2.7, V 2.42, L 2.27, M 2.51, E 2.13, W 2.37, Y 2.52, H 2.47, T 1.88, K 2.6, G 3.2, N 2.36, R 2.85, F 2.08
Y12: V 2.92, N 3.4, A 3.74, Q 3.53, K 3.91, R 3.76, L 2.85, P 4.14, H 3.31, F 2.8, I 3.11, S 3.97, M 2.76, C 3.01, D 4.06, G 3.36, E 4.3, W 2.53, T 3.95
R14: W 2.52, V 3.17, D 3.9, L 2.32, F 2.81, T 3.09, S 2.69, Q 2.83, H 3.28, C 2.78, A 3.08, E 3.4, N 3.04, M 2.79, K 2.66, Y 2.81, I 3.17, G 3.73, P 3.71
D2: L 2.34, N 2.1, Y 2.62, S 2.5, G 2.56, P 2.8, E 2.74, C 2.28, K 2.63, A 2.37, T 1.98, H 2.19, I 1.96, F 2.27, V 1.85, Q 2.44, W 2.86, R 2.63, M 1.91
Y5: L 3.05, S 3.21, A 2.94, Q 3.82, C 3.69, N 2.85, V 3.3, P 3.65, R 3.18, D 3.92, E 3.67, G 2.76, F 2.47, T 3.36, M 3.11, W 2.11, H 2.98, K 3.43, I 2.69
H1: T 3.96, A 4.01, P 3.1, F 2.12, L 4.22, D 3.52, E 2.83, C 3.66, N 3.2, G 2.88, K 3.32, I 3.4, Q 3.18, S 3.68, V 4, M 2.98, R 3.09, W 2.38
L13: N 4.16, A 3.73, Q 4.06, V 3.72, I 3.06, K 3.44, W 2.77, S 4.04, G 3.62, D 4.11, E 3.99, F 3.21, Y 2.78, M 3.1, R 3.39, T 3.72, H 3.88, C 2.77, P 3.21
S10: F 1.96, V 2.64, M 2.72, L 2.96, N 3.97, Q 3.78, E 4.21, P 4.13, R 3.02, Y 1.67, I 2.49, G 3.34, A 2.96, K 3.46, C 1.97, T 3.63, D 4.06, H 3.8, W 2.44
L4: Y 2.69, N 2.28, G 3.3, S 3.35, A 2.32, T 2.87, C 3.28, R 1.58, E 3.46, W 2.98, I 2.04, D 3.74, P 3.28, M 3.29, V 2.66, H 3.22, K 1.9, F 3.22, Q 2.03
G6: C 2.17, F 1.58, K 1.73, H 1.88, E 3.19, L 2.18, N 2.08, A 1.77, W 2.06, Q 2.35, T 1.86, S 1.27, I 1.6, P 3.46, M 1.7, V 2.56, R 1.76, Y 2.42, D 3.61

Variants of: B2
Test: as above
Conditions: c terminus: a fixed tail appended

Protein stability index: each site, then its substitutions
E24: M 1.84, R 2.18, W 2.67, H 2.23, V 2.02, P 2.24, G 2.75, Q 2.29, K 2.29, T 2.1, I 2.1, S 2.07, N 2.46, F 2.85, Y 1.89, D 2.84, L 2.14
